Measurements reported in paper doi:10.1101/2024.06.18.599654 (bioRxiv, 2024).
Where “and” joins values, the source holds several entries; their conditions need not be identical. Identical values can stand only once.

Target: the molecule itself
Assay: SEC

B1: PE11 (Rv1169c) esterase of Mycobacterium tuberculosis, recombinant His-tagged (enzyme)
chain: MSFVTTRPDSIGETAANLHEIGVTMSAHDDGVTPLITNVESPAHDLVSIVTSMLFSMHGELYKAIARQAHVIHESFVQTLQTSKTSYWLTELANRAGTST
- stoichiometry N: 4 and 2
